Common to all, as to experiment: fluorescence polarisation; 25 °C; unlabeled Rb^P titrated against 1.5 nM TMR-E2F1^TD or 7.5 nM TMR-E7^LxCxE; 25 mM Tris pH 8.0, 200 mM NaCl, 1 mM DTT, 0.1% Tween-20; 2 min incubation; quadratic fit; apparent Kd for the variants, Kd for WT
What all share (settings): both partners purified

One assay deals with T1, Rb^P H699P (human, UniProt P06400 380-788, H699P).
T1 construct: also called variant 63
T1 sequence (looked up): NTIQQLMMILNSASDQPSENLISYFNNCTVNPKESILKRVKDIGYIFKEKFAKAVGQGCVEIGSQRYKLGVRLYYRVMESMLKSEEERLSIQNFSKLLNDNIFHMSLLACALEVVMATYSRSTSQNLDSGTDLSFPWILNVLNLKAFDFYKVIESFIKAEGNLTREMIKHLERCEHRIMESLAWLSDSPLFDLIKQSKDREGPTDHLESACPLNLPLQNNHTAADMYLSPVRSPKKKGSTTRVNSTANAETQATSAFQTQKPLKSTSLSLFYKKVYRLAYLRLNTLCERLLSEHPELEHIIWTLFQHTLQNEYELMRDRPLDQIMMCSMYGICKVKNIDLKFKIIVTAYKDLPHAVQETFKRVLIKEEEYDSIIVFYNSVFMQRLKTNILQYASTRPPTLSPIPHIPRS

The next assay addresses T2, Rb^P K530I (human, UniProt P06400 380-788, K530I).
T2 construct: also called variant 21
T2 sequence (looked up): T1 sequence (looked up) with K151I, P320H

The target of another assay is T3, Rb^P S588F (human, UniProt P06400 380-788, S588F).
T3 construct: also called variant 34
T3 sequence (looked up): T1 sequence (looked up) with S209F, P320H

For the next assay, the target named is T4, Rb^P T664A (human, UniProt P06400 380-788, T664A).
T4 construct: also called variant 50
T4 sequence (looked up): T1 sequence (looked up) with T285A, P320H

Another assay has as its target T5, Rb^P I679F (human, UniProt P06400 380-788, I679F).
T5 construct: also called variant 57
T5 sequence (looked up): T1 sequence (looked up) with I300F, P320H

We go through 2 molecules from article PMC11931385, “Structural and functional analysis of cancer-associated missense variants in the retinoblastoma protein pocket domain” (The Journal of Biological Chemistry, 2025).

Changes are numbered by the printed parent chain. Names may count otherwise. No end group written: not given here. TMR = tetramethyl rhodamine dye

B1: TMR-E2F1^TD, peptide of the E2F1 transactivation domain (peptide)
peptide: {TMR}-GEGIRDLFDCDFGDLTPLD
notes: also called E2F^TD; source: synthetic peptide, bought: GenScript
For the molecule B1, the Kd came out at 35 nM with Rb^P H699P; 945 nM with Rb^P K530I; 36 nM with Rb^P S588F; 15 nM with Rb^P T664A; 17 nM with Rb^P I679F.

B2: TMR-E7^LxCxE, LxCxE peptide of the E7 oncoprotein from HPV (peptide)
peptide: DLYCYEQLN
modifications: also: TMR label, position not given here
notes: source: synthetic peptide, bought: GenScript
For B2, the Kd with Rb^P H699P turned out to be 6 nM; with Rb^P K530I it was 8 nM; with Rb^P S588F it was 5 nM; in the assay with Rb^P T664A, 8 nM; with Rb^P I679F, 11 nM.
